Here are results for one molecule from US8420311B2, “Method to block the infection by flaviviruses, molecules and uses” (Centro de Ingenieria Genetica y Biotecnologia, priority 2006, dated 2013).

The test system of one assay is DV2 S16803. As to the kind of experiment: Inhibition of the infection of Vero cells by a natural ligand of the A2MR receptor or anti-receptor antibodies (lytic plaques). The format is cell-based, dengue virus. As to the method: FIG. 8. Effect of recombinant RAP on the infection of Vero cells with DV2, strain S16803. Vero monolayers at 90% confluence were pre-incubated with different dilutions of RAPR13 or BSA, for 1 hour at 37° C., followed by the addition of the viral preparation at a multiplicity of infection of 1 and another incubation at 37° C. for 1 hour. After eliminating the unbound viruses, MEM medium supplemented with non-essential aminoacids, 1% FCS and 1% CMC was added, and the cells were incubated for 5 days at 37° C. The lytic plaques were visualized by staining the monolayer with Naphtol Blue Black. The assays were performed in 24-well plates, using duplicates for each point of the assay.
Vero cells were grown in 24-well plates to approximately 90% confluence, and washed twice with MEM medium without FCS. The dilutions containing the proteins or the antibodies, according to the objective of the assay, were then added and incubated for 1 hour at 37° C. After the incubation, the virus was added at a multiplicity of infection of 0.1, followed by a subsequent incubation for 1 hour at 37° C. […] The inhibition percentage was calculated according to the expression […]

In a further assay the test system is DV1 West Pac 74. The assay is described as above. The following applies: inhibition percentage; RAP13 and BSA 100 μg/mL, antibody preparations 1/100 dilution; average of three determinations. The assay is classed as cell-based, dengue virus. As to the method:
(§1) Vero cells were grown in 24-well plates to approximately 90% confluence, and washed twice with MEM medium without FCS. The dilutions containing the proteins or the antibodies, according to the objective of the assay, were then added and incubated for 1 hour at 37° C. After the incubation, the virus was added at a multiplicity of infection of 0.1, followed by a subsequent incubation for 1 hour at 37° C. At the end of the second incubation, the unbound virus was eliminated by washing, and the cells were incubated for 5 days at 37° C. in high density medium (MEM supplemented with non essential aminoacids, 1% FCS, 1% carboxymethylcellulose) in order to propitiate the appearance of lytic plaques. The plaques were visualized by staining with 0.1% Naphtol Blue Black in 0.15 Mol/L sodium acetate. Two replicates were used per experimental point in each assay, and three independent determinations were performed. The inhibition percentage was calculated according to the expression
(§2) The assay for the inhibition of infection was performed on 24-well plates seeded with a monolayer of Vero cells at approximately 90% confluence. The dilution of the virus was adjusted to obtain approximately 20 lytic plaques per well. […] There were no significant reductions when the cells were pre-incubated with BSA or with antibody preparations against an unrelated antigen.

In the next assay the test system is DV4 TVP360. The assay is described as above. The assay is classed as cell-based, dengue virus. The following applies: inhibition percentage; RAP13 and BSA 100 μg/mL, antibody preparations 1/100 dilution; average of three determinations. As to the method: as §1, §2
Another assay has as its system DV3 CH53489. Described as above. The format is cell-based, dengue virus. The following applies: inhibition percentage; RAP13 and BSA 100 μg/mL, antibody preparations 1/100 dilution; average of three determinations. As to the method: as §1, §2
The next assay deals with Vero cells. Put plainly: Binding of fluoresceinated proteins to the surface of Vero cells (flow cytometry). The format is cell-based, monkey. Here is the method: FIG. 7. Inhibition of the binding of DIIIE2J to Vero cells by A2M and RAPR13. The pre-fixed cells were incubated with the fluoresceinated proteins, and the intensity of the fluorescence due to binding of the fluoresceinated ligands to the cells was measured by flow cytometry. Each experimental point represents data gathered from a minimum of 20 000 cells. (A) Binding of A2M and RAPR13 to the cells. The depicted values correspond to the average of the intensity of the fluorescence at each point of the assay minus the fluorescence obtained with untreated cells. (B) and (C) The cells were incubated with fluoresceinated DIIIE2J in the presence or absence of the non-fluoresceinated ligands, using the molar ratio indicated on each case. The % binding was calculated from the ratio of the average intensity of the fluorescence of the cells incubated with the mixture of fluoresceinated DIIIE2J plus the proteins, between that of the cells incubated only with fluoresceinated DIIIE2J.
In the case of cultured Vero cells, they were detached from the surface of the culture flask without using proteases, by incubation with PBS pH 7.4, 5 mM EDTA for 10 min. at 37° C., gently tapping the outside of the flask.
The cells, collected and washed as described above, were incubated in fixing solution (PBS pH 7.4, 2% paraformaldehyde, 0.01% NaN3, 1 mM CaCl2, 1 mM MgCl2 for 30 min at 4° C., and the fixing solution was then eliminated by centrifugation at 350×g for 5 min a 4° C. […] The intensity of the fluorescence was quantified by flow cytometry on a PAS III cytometer (Partec, Germany). The values for each experimental point were calculated from measurements on a minimum of 20 000 cells.
Given that this cell line is derived from monkey kidney cells and that the ligands for the A2MR receptor used in the assays are of human origin, a preliminary and necessary step was the corroboration of the binding of the RAPR13 and A2M MeNH2 proteins to Vero cells. With this aim, these proteins were fluoresceinated, and their binding to the surface of Vero cells was measured using flow cytometry. […]

B1: RAPR13: recombinant human LRPAP1 (RAP) protein with N-terminal tag of 6 histidines, SEQ ID. 26 (protein, listed as Homo sapiens)
chain: MGSSHHHHHHSSGLVPRGSHMYSREKNQPKPSPKRESGEEFRMEKLNQLWEKAQRLHLPPVRLAELHADLKIQERDELAWKKLKLDGLDEDGEKEARLIRNLNVILAKYGLDGKKDARQVTSNSLSGTQEDGLDDPRLEKLWHKAKTSGKFSGEELDKLWREFLHHKEKVHEYNVLLETLSRTEEIHENVISPSDLSDIKGSVLHSRHTELKEKLRSINQGLDRLRRVSHQGYSTEAEFEEPRVIDLWDLAQSANLTDKELEAFREELKHFEAKIEKHNHYQKQLEIAHEKLRHAESVGDGERVSRSREKHALLEGRTKELGYTVKKHLQDLSGRISRARHNEL
modifications: N-terminal His6 tag
For B1, the “inhibition of the infection, DV2” value with DV2 S16803 (inhibition percentage, RAP13 and BSA 100 μg/mL, antibody preparations 1/100 dilution, average of three determinations) turned out to be 76. Moreover, the “inhibition of the infection for DV2, concentration dependence” value with DV2 S16803 (lytic plaque reduction assay, dilutions of RAPR13 (FIG. 8)) is “dependent on the protein concentration”. Also, the “inhibition of the infection, DV1” value in the assay on DV1 West Pac 74 was found to be 65. The “inhibition of the infection, DV4” value in the assay on DV4 TVP360 came out at 75. Further, the “inhibition of the infection, DV3” value in the assay with DV3 CH53489 amounted to 60. Further, the “binding to the surface of Vero cells” value in the assay on Vero cells (fluoresceinated proteins (FIG. 7A)) is “concentration-dependant and saturable binding behavior”. Also, the “binding of fluoresceinated A2M_MeNH2 to Vero cells in the presence of unlabelled protein” value in the assay on Vero cells (unlabelled protein at 100-fold molar excess, 30 min. at 4° C. (FIG. 7B)) is reported as “decrease in fluorescence”.
